Results as given in publication PMC7048804.

How the values were obtained:
[1] = target: XPF–ERCC1 mutant 323–326Δ^XPF (human) (UniProt Q92889)
[2] = target: XPF–ERCC1 complex (human) (UniProt Q92889)
ERCC1 (human) = ERCC1 (human) (UniProt P07992)
Chain of UniProt P07992 (P07992 other isoform, or with tags, fused parts or gaps): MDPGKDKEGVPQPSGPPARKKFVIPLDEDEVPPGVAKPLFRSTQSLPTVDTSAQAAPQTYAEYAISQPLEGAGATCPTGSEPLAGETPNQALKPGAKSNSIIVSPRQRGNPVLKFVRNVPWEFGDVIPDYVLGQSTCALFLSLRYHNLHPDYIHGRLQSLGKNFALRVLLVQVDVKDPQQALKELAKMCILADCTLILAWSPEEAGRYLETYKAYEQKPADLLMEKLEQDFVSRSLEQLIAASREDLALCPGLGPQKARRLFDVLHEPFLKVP

catalytic efficiency kcat/Km of XPF(323–326 Δ)–ERCC1–SLX4^NTD on a stem–loop DNA substrate, real-time fluorescence incision assay [1] [M⁻¹ s⁻¹] | catalytic efficiency kcat/Km of XPF–ERCC1–SLX4^NTD on a stem–loop DNA substrate, real-time fluorescence incision assay (XPF–ERCC1 alone: 1.73) [2] [M⁻¹ s⁻¹] | catalytic efficiency kcat/Km of XPF(S312A)–ERCC1 on a stem–loop DNA substrate, real-time fluorescence incision assay (wild type: 1.73) (ERCC1 (human)) [M⁻¹ s⁻¹] | Binder
5e+06 | 1.73e+08 | – | SLX4^NTD (residues 1–758) (domain or fragment) MKLSVNEAQLGFYLGSLSHLSACPGIDPRSSEDQPESLKTGQMMDESDEDFKELCASFFQRVKKHGIKEVSGERKTQKAASNGTQIRSKLKRTKQTATKTKTLQGPAEKKPPSGSQAPRTKKQRVTKWQASEPAHSVNGEGGVLASAPDPPVLRETAQNTQTGNQQEPSPNLSREKTRENVPNSDSQPPPSCLTTAVPSPSKPRTAQLVLQRMQQFKRADPERLRHASEECSLEAAREENVPKDPQEEMMAGNVYGLGPPAPESDAAVALTLQQEFARVGASAHDDSLEEKGLFFCQICQKNLSAMNVTRREQHVNRCLDEAEKTLRPSVPQIPECPICGKPFLTLKSRTSHLKQCAVKMEVGPQLLLQAVRLQTAQPEGSSSPPMFSFSDHSRGLKRRGPTSKKEPRKRRKVDEAPSEDLLVAMALSRSEMEPGAAVPALRLESAFSERIRPEAENKSRKKKPPVSPPLLLVQDSETTGRQIEDRVALLLSEEVELSSTPPLPASRILKEGWERAGQCPPPPERKQSFLWEGSALTGAWAMEDFYTARLVPPLVPQRPAQGLMQEPVPPLVPPEHSELSERRSPALHGTPTAGCGSRGPSPSASQREHQALQDLVDLAREGLSASPWPGSGGLAGSEGTAGLDVVPGGLPLTGFVVPSQDKHPDRGGRTLLSLGLLVADFGAMVNNPHLSDVQFQTDSGEVLYAHKFVLYARCPLLIQYVNNEGFSAVEDGVLTQRVLLGDVSTEAARTFLHYLYTA
– | – | 4.42e+07 | XPF S312A (enzyme) MESGQPARRIAMAPLLEYERQLVLELLDTDGLVVCARGLGADRLLYHFLQLHCHPACLVLVLNTQPAEEEYFINQLKIEGVEHLPRRVTNEITSNSRYEVYTQGGVIFATSRILVVDFLTDRIPSDLITGILVYRAHRIIESCQEAFILRLFRQKNKRGFIKAFTDNAVAFDTGFCHVERVMRNLFVRKLYLWPRFHVAVNSFLEQHKPEVVEIHVSMTPTMLAIQTAILDILNACLKELKCHNPSLEVEDLSLENAIGKPFDKTIRHYLDPLWHQLGAKTKSLVQDLKILRTLLQYLSQYDCVTFLNLLEALRATEKAFGQNSGWLFLDSSTSMFINARARVYHLPDAKMSKKEKISEKMEIKEGEETKKELVLESNPKWEALTEVLKEIEAENKESEALGGPGQVLICASDDRTCSQLRDYITLGAEAFLLRLYRKTFEKDSKAEEVWMKFRKEDSSKRIRKSHKRPKDPQNKERASTKERTLKKKKRKLTLTQMVGKPEELEEEGDVEEGYRREISSSPESCPEEIKHEEFDVNLSSDAAFGILKEPLTIIHPLLGCSDPYALTRVLHEVEPRYVVLYDAELTFVRQLEIYRASRPGKPLRVYFLIYGGSTEEQRYLTALRKEKEAFEKLIREKASMVVPEEREGRDETNLDLVRGTASADVSTDTRKAGGQEQNGTQQSIVVDMREFRSELPSLIHRRGIDIEPVTLEVGDYILTPEMCVERKSISDLIGSLNNGRLYSQCISMSRYYKRPVLLIEFDPSKPFSLTSRGALFQEISSNDISSKLTLLTLHFPRLRILWCPSPHATAELFEELKQSKPQPDAATALAITADSETLPESEKYNPGPQDFLLKMPGVNAKNCRSLMHHVKNIAELAALSQDELTSILGNAANAKQLYDFIHTSFAEVVSKGKGKK
